Results on 19 variants are retold here after the RNAGym collection of RNA variant scans (doi:10.1073/pnas.2313332121).

Sequences and labels used below:
B1: TPR 5TU (parent)
chain: GGAUCUUCUCGAUCUAACAAAAAAGACAAAUCUGCCACAAAGCUUGAGAGCAUCUUCGGAUGCAGAGGCGGCAGCCUUCGGUGGCGCGAUAGCGCCAACGUUCUCAACUAUGACACGCAAAACGCGUGCUCCGUUGAAUGGAGUUUAUCAUG

Fewer inactive variants are shown than the library holds. Where only a bound is given, the exact number is not on record here.

The data set covers variants of B1. Nature of the data set: polymerase ribozyme fitness, log enrichment relative to wild type (log ratio); higher = more active; in vitro selection for triplet polymerase activity. In a few lines: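 Mutant libraries of both subunits of a heterodimeric triplet polymerase ribozyme were PCR-built, transcribed, and selected once in triplicate, with frozen incubation at −7 °C and capture of gel-excised extended constructs on streptavidin beads before RT-PCR. Illumina sequencing of input and output libraries was filtered to genotypes with ≥10 input reads and ≥1 read per output. Fitness is the logarithm of genotype enrichment over wild-type enrichment, using inverse-variance-weighted replicate averages. The logarithm is base 2.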
For GGAUAUUCUCGAUCUAACAAAAAAGACAAAUCUGCCAUAAAGCUUGAGAGCAUCUUCGAAUGCAGAGGCGGCAGCCUUCGGUGGCGGGAUAGCGCCAACGUUAUCAACUAUGACACGCAAUACGCAUGCUCCGUUGAAUGGAGUUCAUCAUG, the “polymerase ribozyme fitness (log ratio)” value was no more than -4.2.

Take GGAUAUUCUCGAUCUAACAAAAAAGACAAAUCUGCCACAAAGCUUGUGAGCAUCUUCGGAUGCAGAGGCGGCAGCGUUCGGUGGCGCGAUAGCCCCAACGGUCUCAACUAUGACACGCAAAACGCGUGCUCCGUUGAAUGGAGUUUAUCAUG: the “polymerase ribozyme fitness (log ratio)” value is -4.01.

As for GGAUAUUCUCGAUCUAACAAAAAAGACAAAUCUGCCACAAAGCUUGAGAGCAUCUUCGGAUGCAGAGGCGGCAGCCUUCGGUGGCGUGAUAGCGCCAACGUUCUCAACUAUGACACGCAAAACGCGUGCUCCGUUGAAUGGAGUUUAUCAUG, the “polymerase ribozyme fitness (log ratio)” value is -0.502.

Regarding GGAUAUUCUCGAUCUAACAAAAAAGACAAAUCUGCCACAAAGCUUGAGAGCAUCUUCGGAUGCAGAGGCGGCAGCAUUCGGUGGGGCGAUAGCGCCAACGUUCUCAACUAUGACACGCAAAACGCGUGCUCCCUUGAAUGGAGUUUAUCAUG, the “polymerase ribozyme fitness (log ratio)” value was -2.61.

Consider GGAUAUUGUCGAUCUAACAAUAAAGACAAAUCUGCCACAAAGCUUGAGAGCAUGUUUAGAUGCAGAGGAGGCAGCCUUCGAUGGCGCGAUAGCGCCAACGUUCUCAACUAUGACUCGCAAAACGCGUGCUCCCUUGAAUGGAUUUUAUCAUG, for which the “polymerase ribozyme fitness (log ratio)” value is no more than -4.2.

For GGAUAUUCUCGAUCUAACAAAAAAGACAAAUCUGCCACAAAGCUUGAGAGCAUUUUCGGAUGCAGAGGCGGCAGCCUUCGGUGGCGUGAUAGCGCCAACGUUCUCAACUAUGACACGCAAAACGCGUGCUCCGUUGAAUGGAGUUUACCAUG, the “polymerase ribozyme fitness (log ratio)” value was -2.76.

For GGAUAUUCUCGAUCUAACAAAAAAGACAAAUCUGCCACAAAGCUUGAGAGCAUCUUCGGAUGCAGAGGAGGCAGCCUUCGGUGACGCGAUAGCGCCAACGUUCGCAACUAUGACACGCAAAACGUAUGCUCCGUUGAAUGGCGUUUAUCAUG, the “polymerase ribozyme fitness (log ratio)” value is no more than -4.2.

For the variant GGAUAUUCUCGAUCUAACAAAAAAGACAAAUCUGCCAUAAAGCUUGAGAGCAUCUUCGGAUGCAGCGGCGGUAGCCUUAGGUGGCGCGAUAGCGCAAACGUUCUCAACUAUGACACACAAAACGCGUGCUCCGUUGAAUGGAGUUUAUCAUG, the “polymerase ribozyme fitness (log ratio)” value is no more than -4.2.

On to GGAUAUUCUCGAUCUAACAAAAAAGACAAAUCUGCCACAAAGCUUGGGAGCAUCUUCGGAUGCAGAGGCGGCAGCCUUAGGUUGCGCGAUAGCGCCAACGUUCUCAACUAUGACACGCAAAACGCGUGCUCCGUUGAAUAGAGUUGAUCAUG, for which the “polymerase ribozyme fitness (log ratio)” value was no more than -4.2.

GGAUAUUCUCGAUCUAACAAAAAAGACAAAUCUGCCACAAACCUUGAGAGCAUCUUCGGAUGCAGAGGCGGCAGCCUUCGGUGGCGCGAUAGCGCCAACGUUCUCAACUAUGACACGCAAAACGCGUGCUCCGUUGAAUGGAGUUUAUCAUG: the “polymerase ribozyme fitness (log ratio)” value is -4.02.

As for GGAUAUUCUCGAUGUAACAAAAAAGACAAAUCUGCCACAAAGCUUGAGAGCAUCUUCGGAUGCAGAGGCGGCAGCCUUCGGUGGCGCGAUAGCCCCAACGUUCUCAACUAUGACACGCAAAACGCGUGCUCCGUUGAAUGGAAUUUAUCAUG, the “polymerase ribozyme fitness (log ratio)” value was -4.07.

As to GGAUAUUCUCGAUCUAACAAAAAAGACAAAUCUGCCACAAAGCUUGAGAGCAUCUUCGGAUGCAGAGGCGGCAGCCUUCGGUGGUGCGAUAGCGCCAACGUUCUCAACUAUGACACGCAAAACGCGUGCUCCGUUGAAUGGAGUUUAUCAUG, the “polymerase ribozyme fitness (log ratio)” value was -0.371.

Regarding GGAUAUUCUCGAUCUAACAAAAAAGACAAAUCUGCCACAAAGCUUGAGAGCAUCUUCGGAUGCAGAGGCGGCAGCCUUAGGUGGCGCAAUAGCGCCAACGUUCUCCACUAUGACACGCAAAACGCGUGCUCCGUUGAAUGGAGUUUAUCAUG, the “polymerase ribozyme fitness (log ratio)” value was no more than -4.2.

In the case of GGAUAUUCUCGAUCUAACAAAAAAGACAAAUAUGCCACAAAGCUUGAGAGCAUCUACGGAUGCAGAGGCGGCAGCCUUCGGUGGUGCGAUAGCGCCAACGUUCUCAACUAUGCCACGCAAAACGCGUGCUCCGUUGAAUGGAGUUUAUCAUG, the “polymerase ribozyme fitness (log ratio)” value was no more than -4.2.

With GGAUAUUCUCGAUCUAACAAAAAAGACAAAUCUGCCACAAAGCUUGAGAGCAUCUUCGGAUGCAGAGGCGGCAGCCUUCGGUGGCGUGAUAGCGCCAACGUUCUCAACUAUGACACGCAAAACGCGUGAUCCGUUGAAUGGAGUUUAUCAUG, the “polymerase ribozyme fitness (log ratio)” value is -3.51.

With GGAUAUUCUCGAUCUAACAAAAAAGACAAAUCUGCCACAAAGCUUGAGUGCAUCUUAGGAUGCAGAGGCGGCAGCCUUCGGUGGCGCGAUAGCGCCAACGUUCUCAACUAUGACACGCAAAACGCGUGCUCCGUUGAAUGGAGUUUAUCAUG, the “polymerase ribozyme fitness (log ratio)” value was -0.832.

On to GGAUAUUCUCGAUCUAACAAAAAAGACAAAUCUGCCACAAAGCUUGAGAGCAUCUUCGGAUGCAGAGGGGGCAGCCUUCGGUGACGCGAUAGCGCCAACGUUCUCAAUUAUGACACGCAAAACGCGUGCUCCGUUGAAUGGAGUUUAUCAUG, for which the “polymerase ribozyme fitness (log ratio)” value was -3.39.

For the variant GGAUAUUCUCGAUCUAACAAAAAAGAUAAAUCUGCCACAAAGCUUGAGAGCAUCUUCGGAUGCAGAGGCGGCAGCCUUCGGUGGCGCGAUAGCGCCAACGUUCUCAACUAUGACACGCAAAACGCGUGCUCCGUUGAAUGGAGUUUAUCAUG, the “polymerase ribozyme fitness (log ratio)” value is -1.46.

As to GGAUAUUCUCGAUCUAACAAAAAAGACAAAUCUGCCACAAAGCUUGUGAGCAUCUUCGGAUGCAGAGGCGGCAGCCUUCGGUGACGCGAUAGCGCCAACGUUCUCAACUAUGACACGCAAAACUCGUGCUCCGUUGAAUGGAGUUUAUCAUG, the “polymerase ribozyme fitness (log ratio)” value was -1.14.
